Experimental data taken from publication PMC7041945, “Misfolded proteins bind and activate death receptor 5 to trigger apoptosis during unresolved endoplasmic reticulum stress” (eLife, 2020).

Test system: CHOP, BiP, and DR5 mRNA in HCT116 cells
Assay: qPCR of UPR target transcripts (CHOP, BiP, DR5)
Type: cell-based, Homo sapiens
Details: HCT116; for ERO1alpha (386+387) avg. fold induction relative to empty traffo / ERO1alpha (386+387) fold induction relative to empty traffo: melt curves for these primers showed two peaks; for GAPDH avg. fold induction relative to empty traffo / GAPDH fold induction relative to empty traffo: sheet Cq data 2
Method: Cells were grown in 6-well plates and harvested with 0.5 ml of TRIzol reagent (Life Technologies) per manufacturer’s protocol to extract RNA. For cDNA synthesis, 500 ng of total RNA was reverse transcribed with 2 μl of the SuperScript VILO master mix (Life Technologies # 11755050) in a total reaction volume of 10 μl following the manufacturer’s protocol for reaction temperature and duration. The reverse transcription product was diluted to 200 μl with 10 mM Tris-HCl pH 8.2 and used at 1:100 dilution for subsequent RT-PCR reactions.
PCR samples were prepared as described by manufacturer’s protocols from iQ SYBR Green Supermix (BioRad #17088800).
For each experiment, qRT-PCR reactions were set up in triplicate and run using a CFX96 Real Time System (Bio-Rad). Quantitation cycles were determined with CFX Manager 3.0 software (Bio-Rad) and then normalized to GAPDH as an internal control.

[1] = pRK CHOP 31 ng, mean of 3 replicates
[2] = pRK CHOP 62 ng, mean of 3 replicates
[3] = pRK CHOP 125 ng, mean of 3 replicates
[4] = pRK CHOP 250 ng, mean of 3 replicates
[5] = pRK CHOP 500 ng, mean of 3 replicates

B1: pRK CHOP (protein, UniProt P35638 1-169, looked up)
DNA damage-inducible …: MAAESLPFSFGTLSSWELEAWYEDLQEVLSSDENGGTYVSPPGNEEEESKIFTTLDPASLAWLTEEEPEPAEVTSTSQSPHSPDSSQSSLAQEEEEEDQGRTRKRKQSGHSPARAGKQRMKEKEQENERKVAQLAEENERLKQEIERLTREVEATRRALIDRMVNLHQA
modifications: expression plasmid
pRK CHOP 31 ng, replicate 1
  GAPDH (qPCR CHOP, Sheet1): 0.869
  ERO1alpha (386+387) fold induction relative to empty traffo: 0.958
  GADD34 (388+389) fold induction relative to empty traffo: 1.125
  GFP fold induction relative to empty traffo: 1.737
  GAPDH fold induction relative to empty traffo: 0.9404
pRK CHOP 31 ng, replicate 2
  CHOP (qPCR CHOP, Sheet1): 19.1521
  DR5 (qPCR CHOP, Sheet1): 0.9212
  GADD34 (qPCR CHOP, Sheet1): 1.088
  GAPDH (qPCR CHOP, Sheet1): 1.031
  ERO1alpha (386+387) fold induction relative to empty traffo: 1.088
  GADD34 (388+389) fold induction relative to empty traffo: 0.859
  GFP fold induction relative to empty traffo: 1.908
  GAPDH fold induction relative to empty traffo: 0.905
pRK CHOP 31 ng, replicate 3
  CHOP (qPCR CHOP, Sheet1): 20.8362
  DR5 (qPCR CHOP, Sheet1): 2.023
  GADD34 (qPCR CHOP, Sheet1): 1.137
  GAPDH (qPCR CHOP, Sheet1): 1.033
  ERO1alpha (386+387) fold induction relative to empty traffo: 1.137
  GADD34 (388+389) fold induction relative to empty traffo: 1.016
  GFP fold induction relative to empty traffo: 1.822
  GAPDH fold induction relative to empty traffo: 1.174
[1]
  GADD34 (388+389) avg. fold induction relative to empty traffo: 1
  GFP avg. fold induction relative to empty traffo: 1.822
  ERO1alpha (386+387) avg. fold induction relative to empty traffo: 1.061
  GAPDH avg. fold induction relative to empty traffo: 1.0065
[2]
  GFP avg. fold induction relative to empty traffo: 1.726
  ERO1alpha (386+387) avg. fold induction relative to empty traffo: 1.099
  GAPDH avg. fold induction relative to empty traffo: 1.001
pRK CHOP 62 ng, replicate 1
  ERO1alpha (386+387) fold induction relative to empty traffo: 1.074
  GADD34 (388+389) fold induction relative to empty traffo: 0.9151
  GFP fold induction relative to empty traffo: 1.604
  GAPDH fold induction relative to empty traffo: 0.9597
pRK CHOP 62 ng, replicate 2
  ERO1alpha (386+387) fold induction relative to empty traffo: 1.056
  GADD34 (388+389) fold induction relative to empty traffo: 1.316
  GFP fold induction relative to empty traffo: 1.747
  GAPDH fold induction relative to empty traffo: 0.9785
pRK CHOP 62 ng, replicate 3
  ERO1alpha (386+387) fold induction relative to empty traffo: 1.168
  GADD34 (388+389) fold induction relative to empty traffo: 1.12
  GFP fold induction relative to empty traffo: 1.828
  GAPDH fold induction relative to empty traffo: 1.064
pRK CHOP 125 ng, replicate 1
  CHOP (qPCR CHOP, Sheet1): 230.561
  DR5 (qPCR CHOP, Sheet1): 1.242
  GADD34 (qPCR CHOP, Sheet1): 1.11
  GAPDH (qPCR CHOP, Sheet1): 0.8158
  ERO1alpha (386+387) fold induction relative to empty traffo: 1.11
  GADD34 (388+389) fold induction relative to empty traffo: 1.561
  GFP fold induction relative to empty traffo: 9.5448
  GAPDH fold induction relative to empty traffo: 0.7828
pRK CHOP 125 ng, replicate 2
  CHOP (qPCR CHOP, Sheet1): 173.762
  DR5 (qPCR CHOP, Sheet1): 1.206
  GADD34 (qPCR CHOP, Sheet1): 1.18
  GAPDH (qPCR CHOP, Sheet1): 1.045
  ERO1alpha (386+387) fold induction relative to empty traffo: 1.18
  GADD34 (388+389) fold induction relative to empty traffo: 1.2889
  GFP fold induction relative to empty traffo: 8.015
  GAPDH fold induction relative to empty traffo: 1.018
pRK CHOP 125 ng, replicate 3
  CHOP (qPCR CHOP, Sheet1): 257.78
  DR5 (qPCR CHOP, Sheet1): 1.064
  GADD34 (qPCR CHOP, Sheet1): 1.241
  GAPDH (qPCR CHOP, Sheet1): 1.086
  ERO1alpha (386+387) fold induction relative to empty traffo: 1.241
  GADD34 (388+389) fold induction relative to empty traffo: 1.475
  GFP fold induction relative to empty traffo: 7.683
  GAPDH fold induction relative to empty traffo: 1.254
[3]
  GFP avg. fold induction relative to empty traffo: 8.414
  ERO1alpha (386+387) avg. fold induction relative to empty traffo: 1.177
  GAPDH avg. fold induction relative to empty traffo: 1.018
[4]
  GFP avg. fold induction relative to empty traffo: 2.186
  ERO1alpha (386+387) avg. fold induction relative to empty traffo: 1.157
  GAPDH avg. fold induction relative to empty traffo: 1.005
pRK CHOP 250 ng, replicate 1
  ERO1alpha (386+387) fold induction relative to empty traffo: 1.13
  GADD34 (388+389) fold induction relative to empty traffo: 1.613
  GFP fold induction relative to empty traffo: 2.374
  GAPDH fold induction relative to empty traffo: 0.8675
pRK CHOP 250 ng, replicate 2
  ERO1alpha (386+387) fold induction relative to empty traffo: 1.17
  GADD34 (388+389) fold induction relative to empty traffo: 1.727
  GFP fold induction relative to empty traffo: 2.176
  GAPDH fold induction relative to empty traffo: 1.034
pRK CHOP 250 ng, replicate 3
  ERO1alpha (386+387) fold induction relative to empty traffo: 1.17
  GADD34 (388+389) fold induction relative to empty traffo: 1.397
  GFP fold induction relative to empty traffo: 2.009
  GAPDH fold induction relative to empty traffo: 1.114
pRK CHOP 500 ng, replicate 1
  CHOP (qPCR CHOP, Sheet1): 1691.32
  DR5 (qPCR CHOP, Sheet1): 1.92
  GADD34 (qPCR CHOP, Sheet1): 1.469
  GAPDH (qPCR CHOP, Sheet1): 0.9688
  ERO1alpha (386+387) fold induction relative to empty traffo: 1.469
  GADD34 (388+389) fold induction relative to empty traffo: 2.321
  GFP fold induction relative to empty traffo: 5.396
  GAPDH fold induction relative to empty traffo: 0.6526
pRK CHOP 500 ng, replicate 2
  CHOP (qPCR CHOP, Sheet1): 1384.67
  DR5 (qPCR CHOP, Sheet1): 1.724
  GADD34 (qPCR CHOP, Sheet1): 1.35
  GAPDH (qPCR CHOP, Sheet1): 0.7886
  ERO1alpha (386+387) fold induction relative to empty traffo: 1.35
  GADD34 (388+389) fold induction relative to empty traffo: 2.041
  GAPDH fold induction relative to empty traffo: 1.156
pRK CHOP 500 ng, replicate 3
  CHOP (qPCR CHOP, Sheet1): 1378.19
  DR5 (qPCR CHOP, Sheet1): 1.731
  GADD34 (qPCR CHOP, Sheet1): 1.457
  GAPDH (qPCR CHOP, Sheet1): 1.212
  ERO1alpha (386+387) fold induction relative to empty traffo: 1.457
  GADD34 (388+389) fold induction relative to empty traffo: 2.147
  GFP fold induction relative to empty traffo: 5.386
  GAPDH fold induction relative to empty traffo: 1.324
[5]
  GFP avg. fold induction relative to empty traffo: 12.178
  ERO1alpha (386+387) avg. fold induction relative to empty traffo: 1.425
  GAPDH avg. fold induction relative to empty traffo: 1.044
